Measured values published in patent EP3221371B1, “MONOLITHS” (Monolythix, Inc., priority 2014, dated 2016).

Test system: alpha-lactalbumin
Experiment: Monolith mediated proteolysis with covalently grafted proteinase K, HPLC
Type: biochemical
Conditions: 65 °C for 2 hrs plus 30 minutes; HPLC (Figure 4)
Protocol: 160 mg/mL EDAC stock was dissolved in dry DMSO. 35 µL of this stock was added to 15 µL of 200 mM MES pH 7.0 and 20 µL 10mg/mL Proteinase K in PBS. The solution was added to a 20 mg disc carboxy monolith polymeric matrix (1:2:1 TEGDMA:EGDMA:HEMA plus 2.0% MAA). The disc was incubated for 1 hr at room temperature. The reaction was then quenched with 5 µL of 30 mg/mL glycine, pH 7.0 for 15 minutes at room temperature. The disc was then washed 3x in 1x PBS and held in 1X PBS for 4 days at 4 °C.
Alpha-lactalbumin substrate was dissolved at 10 mg/mL in 1x PBS. The proteinase K coupled disc was cut into equal 8 pie-shaped pieces. For each assay, one pie piece was placed point side down into a 0.5 mL microfuge tube. For each tube, 27 µL 10mg/mL lactalbumin solution or 1X PBS, 3 µL 5mM CaSO4, was added. The tubes were closed and incubated at 65 °C for 2 hrs. An additional 50 µL deionized distilled water, was added, the tubes closed, and incubated at 65 °C for an additional 30 minutes.

B1: proteinase K: Proteinase K covalently grafted with EDAC to carboxy monolith disc (1:2:1 TEGDMA:EGDMA:HEMA plus 2.0% MAA) (conjugate, UniProt P06873 106-384, looked up)
Proteinase K: AAQTNAPWGLARISSTSPGTSTYYYDESAGQGSCVYVIDTGIEASHPEFEGRAQMVKTYYYSSRDGNGHGTHCAGTVGSRTYGVAKKTQLFGVKVLDDNGSGQYSTIIAGMDFVASDKNNRNCPKGVVASLSLGGGYSSSVNSAAARLQSSGVMVAVAAGNNNADARNYSPASEPSVCTVGASDRYDRRSSFSNYGSVLDIFGPGTSILSTWIGGSTRSISGTSMATPHVAGLAAYLMTLGKTTAASACRYIADTANKGDLSNIPFGTVNLLAYNNYQA
modifications: EDAC-grafted to carboxy monolith disc
degradation of alpha-lactalbumin: fully degraded
